The target of data set [1] is T1, Mer extracellular domain (EC-Mer) (UniProt Q12866 Q12866:21-505).
T1 sequence: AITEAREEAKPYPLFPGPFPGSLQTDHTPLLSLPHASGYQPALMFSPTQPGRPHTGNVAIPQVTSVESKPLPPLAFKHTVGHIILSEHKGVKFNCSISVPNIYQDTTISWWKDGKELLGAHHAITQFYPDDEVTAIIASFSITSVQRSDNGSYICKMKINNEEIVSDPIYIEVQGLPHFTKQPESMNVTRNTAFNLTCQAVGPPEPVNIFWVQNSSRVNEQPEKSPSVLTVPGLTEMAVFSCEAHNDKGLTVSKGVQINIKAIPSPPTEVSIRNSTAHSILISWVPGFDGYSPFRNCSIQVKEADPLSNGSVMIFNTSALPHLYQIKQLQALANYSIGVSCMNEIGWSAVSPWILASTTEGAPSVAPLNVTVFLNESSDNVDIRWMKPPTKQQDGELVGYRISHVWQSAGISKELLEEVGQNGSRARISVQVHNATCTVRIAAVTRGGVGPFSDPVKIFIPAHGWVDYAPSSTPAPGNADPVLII
The data set can be described thus: filter; no Kd calculable up to 1000 nM protein; no binding or affinity at least 10^3 lower; PBS, 0.01% BSA, 37 C. The conditions noted are these: tags: soluble extracellular domain, R&D Systems; label: 5'-32P. On the procedure:
(§1) 1 nM of radiolabelled aptamers (GL21 52-85 or Unrelated) were incubated with 1, 3.2, 10, 32, 100, 320 and 1000 nM of Axl, Dtk, Mer soluble extracellular domain (all from R&D Systems, Minneapolis, Minn.) for 15 min at 37° in phosphate-buffered saline (PBS) supplemented with 0.01% bovine serum albumin.
(§2) After incubation, the aptamer-protein mix was passed through nitrocellulose membrane filter (Millipore Co., Bedford, Mass.) and filters were counted.

The target in data set [2] is Axl receptor tyrosine kinase (cell surface) (Homo sapiens, UniProt P30530 P30530:26-894). Kind of data set: binding to Axl-positive U87MG cells; reduced by Axl shRNA; binds Axl-transfected SKBr3 but not parental SKBr3. The conditions noted are these: label: 5'-32P.
Chain of Axl receptor tyrosine kinase (cell surface) (P30530 26-894, one chain of several): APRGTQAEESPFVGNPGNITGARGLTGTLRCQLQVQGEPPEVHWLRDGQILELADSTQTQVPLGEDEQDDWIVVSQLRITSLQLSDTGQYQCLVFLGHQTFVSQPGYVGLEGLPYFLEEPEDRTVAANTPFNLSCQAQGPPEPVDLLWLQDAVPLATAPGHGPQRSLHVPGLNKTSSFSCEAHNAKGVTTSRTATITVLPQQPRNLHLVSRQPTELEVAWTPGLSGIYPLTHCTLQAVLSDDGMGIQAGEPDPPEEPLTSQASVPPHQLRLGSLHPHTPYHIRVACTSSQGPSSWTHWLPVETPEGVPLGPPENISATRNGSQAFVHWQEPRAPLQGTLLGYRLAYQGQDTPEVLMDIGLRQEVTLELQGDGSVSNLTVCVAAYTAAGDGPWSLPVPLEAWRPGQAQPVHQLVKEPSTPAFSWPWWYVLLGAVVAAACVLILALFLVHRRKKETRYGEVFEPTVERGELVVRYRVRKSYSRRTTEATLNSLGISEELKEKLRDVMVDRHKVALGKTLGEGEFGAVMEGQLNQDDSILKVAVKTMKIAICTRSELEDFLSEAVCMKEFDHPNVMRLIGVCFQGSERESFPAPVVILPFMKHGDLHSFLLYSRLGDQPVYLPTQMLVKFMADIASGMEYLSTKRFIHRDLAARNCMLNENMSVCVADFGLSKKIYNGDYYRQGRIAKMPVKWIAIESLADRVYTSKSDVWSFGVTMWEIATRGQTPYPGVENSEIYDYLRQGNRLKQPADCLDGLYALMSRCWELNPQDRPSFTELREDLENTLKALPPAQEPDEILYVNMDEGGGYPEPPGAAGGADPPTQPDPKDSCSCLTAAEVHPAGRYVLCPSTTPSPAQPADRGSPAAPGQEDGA
For data set [3], the target named is T2, Dtk (Tyro3) extracellular domain (EC-Dtk) (UniProt Q06418 Q06418:41-429).
T2 sequence: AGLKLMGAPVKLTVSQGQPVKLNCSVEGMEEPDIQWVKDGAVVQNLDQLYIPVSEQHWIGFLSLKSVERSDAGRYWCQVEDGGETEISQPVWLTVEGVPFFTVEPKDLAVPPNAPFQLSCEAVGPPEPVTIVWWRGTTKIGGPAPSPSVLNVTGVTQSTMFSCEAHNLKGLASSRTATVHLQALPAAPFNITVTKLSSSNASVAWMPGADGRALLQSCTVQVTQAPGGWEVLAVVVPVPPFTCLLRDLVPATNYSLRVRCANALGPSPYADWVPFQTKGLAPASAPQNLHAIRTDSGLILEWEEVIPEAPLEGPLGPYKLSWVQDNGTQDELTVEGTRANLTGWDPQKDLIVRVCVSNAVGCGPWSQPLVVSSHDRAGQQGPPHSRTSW
Kind of data set: filter; PBS, 0.01% BSA, 37 C, 15 min; unrelated aptamer background subtracted. The conditions noted are these: tags: soluble extracellular domain, R&D Systems; label: 5'-32P. On the procedure:
as §1, §2

Data set [4] addresses Axl extracellular domain (EC-Axl) (UniProt P30530 P30530:26-451). Described as above. The conditions noted are these: tags: soluble extracellular domain, R&D Systems; label: 5'-32P. On the procedure:
as §1, §2

Chain of Axl extracellular domain (EC-Axl) (P30530 26-451, one chain of several): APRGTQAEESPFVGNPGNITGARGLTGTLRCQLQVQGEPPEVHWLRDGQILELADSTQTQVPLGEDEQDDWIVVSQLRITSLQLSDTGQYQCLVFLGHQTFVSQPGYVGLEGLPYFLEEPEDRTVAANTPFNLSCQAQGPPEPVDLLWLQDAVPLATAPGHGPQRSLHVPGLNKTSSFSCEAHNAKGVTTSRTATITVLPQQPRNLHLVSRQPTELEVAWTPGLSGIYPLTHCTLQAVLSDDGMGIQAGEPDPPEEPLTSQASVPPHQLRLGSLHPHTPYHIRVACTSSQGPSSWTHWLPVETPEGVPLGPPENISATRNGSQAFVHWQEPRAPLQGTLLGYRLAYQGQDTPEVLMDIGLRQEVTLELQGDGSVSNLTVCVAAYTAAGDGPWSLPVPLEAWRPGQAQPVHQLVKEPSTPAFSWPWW

For AUGAUCAAUCGCCUCAAUUCGACAGGAGGCUCAC (ssRNA, 2'-F on all pyrimidines) [GL21 52-85 (GL21.T)], the binding result in data set [1] is listed as “no binding”. Also, the dissociation constant Kd in data set [2] worked out at 90 nM; in data set [3] it was 47 nM; in data set [4], 13 nM.

The values above are taken from US20130197070, “AXL RECEPTOR TYROSINE KINASE APTAMER INHIBITOR FOR USE IN THERAPY” (CNR - CONSIGLIO NAZIONALE DELLE RICERCHE, published 2013).
